Substrate in data set [1]: COC(=O)/C=C/c1ccc(O)cc1
Kind of data set: purified protein, by the assay type.

Substrate in data set [2]: COc1cc(/C=C/C(=O)OC[C@@H]2OC(O)[C@H](O[C@@H]3OC[C@@H](O)[C@H](O)[C@H]3O)[C@H]2O)ccc1O
Kind of data set: Kinetic analysis of RsChlE. The class given is biochemical, Rhizoctonia solani. The method, then:
(§1) Km and vmax values were calculated with non-linear regression using SigmaPlot 10.0 (Systat Software Inc., Chicago, USA). Blanks were carried out for all assays using water instead of enzyme. For calculation of kcat the molecular mass was determined using denaturing SDS-PAGE.
(§2) After purification of the recombinant RsChlE from the culture supernatant of Pichia pastoris with Ni-NTA, the enzyme was biochemically characterized. The experiments were performed like for UmChlE. pH and temperature optimums were analyzed. […] Table 4: Substrate specificity of purified RsChIE.
(§3) In the following, the kinetic constants were determined to decide if the enzyme has mainly chlorogenic acid esterase or feruloyl esterase activity. Table 5: kinetic analysis of RsChlE

Substrate in data set [3]: O=C(/C=C/c1ccc(O)c(O)c1)O[C@@H]1C[C@](O)(C(=O)O)C[C@@H](O)[C@H]1O
Kind of data set: Kinetic analysis of RsChlE. The class given is biochemical, Rhizoctonia solani. The method, then:
as §1, §2, §3

Substrate in data set [4]: COC(=O)/C=C/c1ccc(O)c(O)c1
Kind of data set: Kinetic analysis of RsChlE. The class given is biochemical, Rhizoctonia solani. Here is the method:
as §1, §2, §3

B1: RsChlE (Rhizoctonia solani) (protein)
chain: MGCDRPRQALHSLQEFTVMFSKWLPISAILLYGASAKALDCAGLFKKSQTLIKGINPFVAEVHPANVTFVPVGNIAYPDPVPDLPEFCRFGAEYNTSSKSKFRFEVWLPTSKKWNGRFAFIGNGGDAGGVNYADMAIPLAKYGFVVASTNTGHDGTHGDGTFAISNPESQIDFGHRAVHLSTVFAKTIAKSYYGKPSTYNYWIGCSSGGKQGLKSAQAYPADFDGVIAGAPAQWWPHLNGFTTHVNMLNAKATTPGATIPTSFFTALNQEVVAQCGKLDGVDDGIITNPRLCKPDLTRVACGSTNASPYVNSSNCLSKLQLVTLKAIYTNWTSSNGEFLFPTFEPGSEFGWPNTVNGVPYGPGPDYFLYQVYNKTSVQKLQINEAELQRLVAIADVTNPGQSRAIDPNLNPFFKRGGKLLQYHGFADPLIPSGSSLWYYEHVRSYFKNADLSDRYRLFMIPGVAHCSGGPGADAFGRPGQRSVSLGGAGQSLSFTPQYDMILATINWVEKGVAPKSLIGTKYKNNNIREGAKFTRLFCPYPQEAIYRGGNVNVASSYSCGVRA
In the case of B1, the Km is given as 35,8 µM in data set [1], 38,4 µM in data set [2], 18,3 µM in data set [3] and 28,5 µM in data set [4]. Also, the Vmax in data set [1] was 26,5 U/mg; in data set [2], 23,3 U/mg; in data set [3] it was 23,4 U/mg; in data set [4], 16 U/mg. Besides, the kcat in data set [1] was 33,13 s^-1; in data set [2] it was 29,13 s^-1; in data set [3] it was 29,25 s^-1; in data set [4], 20,00 s^-1. Moreover, the kcat/Km in data set [1] was 925,28 mM * s^-1.

The values above are taken from EP3539977B1, “ENZYMES WITH CHLOROGENIC ACID ESTERASE ACTIVITY AND FERULOYL ESTERASE ACTIVITY” (SternEnzym GmbH & Co. KG, priority 2014, dated 2016).
